From patent US20100041875A1 (PROGENICS PHARMACEUTICAL INC AND CORNELL RESEARCH FOUNDATION, published 2010) come the findings set out here.

The test addresses full-length WT JR-FL (gp160) Env (JR-FL WT) (HIV-1 isolate JR-FL (subtype B), UniProt P20871 32-848). The experiment in a line: cell-based or functional assay.

B1: MAb 2G12 (antibody, V domains shown)
VH: EVQLVESGGGLVKAGGSLILSCGVSNFRISAHTMNWVRRVPGGGLEWVASISTSSTYRDYADAVKGRFTVSRDDLEDFVYLQMHKMRVEDTAIYYCARKGSDRLSDNDPFDAWGPGTVVTVSP
VL: VVMTQSPSTLSASVGDTITITCRASQSIETWLAWYQQKPGKAPKLLIYKASTLKTGVPSRFSGSGSGTEFTLTISGLQFDDFATYHCQHYAGYSATFGQGTRVEIKR
B1: the “neutralization of Env-pseudotyped virus infectivity (U87.CD4.CCR5 cells), mean IC50” value was 1.6 µg/mL.
